# Measurements as given in patent US20260008856A1, “METHODS OF TREATING DISEASE USING ANTI-IL1RAP ANTIBODIES AND ANTIBODY DRUG CONJUGATES” (Bluefin Biomedicine, Inc., priority 2022, published 2026).
# B1: 37E10_15B5: human anti-IL1RAP antibody BFB759 (i.e., 37E10_15B5), VH SEQ ID NO: 64, VL SEQ ID NO: 68 (antibody, V domains shown)
# VH: QVQLVESGGGVVQPGRSLRLSCAASGFTFRSHGMHWVRQAPGKGLEWVAVIWYDGSSEYYADSVKGRFTISRDNSKNTLYLQMNSLRAEDTAVYYCARENVYGSGWFFDYWGQGTLVTVSS
# VL: EIVMTQSPATLSVSPGERASLSCRASQSVGSNLAWYQQRPGQAPRLLIFGASTRATGIPARFSGSRSGTEFTLTISSLQSEDFALYYCQQYNNWPPWTFGQGTKLEIK
# Assays:
# Format in all cases: cell-based
# [1] = system: TARC production in HDM stimulated human PBMCs; assay: TARC production in HDM stimulated human PBMCs; conditions: antibodies 30 ug/ml, HDM 10 ug/ml
# From the text: Materials included Human peripheral blood mononuclear cells (PBMCs) that were isolated from healthy donor blood and either frozen in liquid nitrogen and thawed prior to analysis or used fresh. Materials also included HDM (house dust mite extract) that was from Greer lab and purchased through Fisher Scientific (NC9756554, Lot #390844). Additionally, Human IL-4 (204-IL-010) was purchased from R&D Systems; Human IL-13 (200-13) was purchased from Peprotech; JAK inhibitors (JAKi) Abrocitinib (HY-107429) and Upadacitinib (HY-19569) were purchased from MedChemExpress; Dexamethasone (D4902) was purchased from Sigma-Aldrich; Dupilumab (HY-P9926) was purchased from MedChemExpress; Tralokinumab was produced by Bluefin Biomedicine according to the published protein sequence; and TARC ELISA kits (DuoSet Cat #DY364, Quantikine Cat #SDN00) were purchased from R&D Systems.
# Blood was drawn in heparin tubes from healthy volunteers. PBMCs were isolated by centrifugation of the blood over Ficoll-Paque Plus density gradients using LeucoSep tubes.
# 0.2 million PBMCs in 100 ul medium (RPMI1640, 10% heat-inactivated FBS) were added to each well of 96 well cell culture plate. BFB759 at multiple concentrations in 50 ul medium was added to the wells. The cells were incubated in the incubator for 45 min. Then, 50 ul HDM solution (final concentration 10 ug/ml) was added to the wells. […]
# [2] = system: IL-6 secretion in human whole blood cultures stimulated with HKCA; assay: IL-6 production in human whole blood cultures stimulated with heat-killed Candida albicans; conditions: 24 hours, 1 μg/ml alone, combination 1 μg/ml BFB759 + 0.5 μg/ml adalimumab
# From the text: Materials included Human peripheral blood drawn from 5 healthy donors. Materials also included Anti-human TNF alpha (Adalimumab Biosimilar), BioXCell cat #SIM0001, lot #8024221F1; Heat-killed Candida albicans (HKCA), InvivoGen cat #tlrl-hkca, lot #6292-44-02; RPMI 1640 with L-glutamine and HEPES, Corning cat #10-041-CM; and Human IL-6 DuoSet ELISA, R and D Systems cat #DY206-05. Blood was drawn into heparin tubes from healthy volunteers. Whole blood cultures comprised of whole blood diluted with plain RPMI 1640 medium were set up in sterile 5.0 ml polypropylene snap cap culture tubes. One of the following treatments were added for 1 hour prior to either being left unstimulated or receiving stimulation with 1.5×10^6 cells heat-killed Candida albicans: medium alone (cells alone), 1 μg/ml IgG1 isotype control antibody alone, 1 μg/ml BFB759 alone, 1 μg/ml adalimumab alone, or one of two combination treatments of 1 μg/ml IgG1 isotype control antibody+0.5 μg/ml adalimumab or 1 μg/ml BFB759+0.5 μg/ml adalimumab. The final volume of each culture was 1.0 ml. Cultures were incubated for 24 hours at 37° C./5% CO2. Supernatants harvested from each culture in duplicate were frozen at −80° C. until assayed in duplicate for IL-6 levels by ELISA.
# [3] = system: normal human dermal fibroblasts (NHDF); assay: IL-6 and IL-8 production in NHDF stimulated with cytokine combo incl. IL-17A; conditions: cytokine combo IL-1α/β, IL-36α/β/γ, antibodies 0-20 ug/ml, BFB759 0.5 ug/ml in combination
# Experimental: Human NHDF cells were plated on 96-well, flat-bottom plates at 4,000 cells/well. […] For combination therapy, 0.5 ug/ml BFB759 was mixed with Secukinumab or Isotype control antibody at increasing concentrations (0-20 ug/ml, 5-fold dilution) and incubated with cells in duplicate for 45 minutes, prior to the addition of cytokine combo. The plates were then incubated overnight at 37° C., 5% CO2. 24 hours after treatment, supernatants were transferred and assayed for IL-6 and IL-8, as per manufacture's protocol (R&D Systems; Human IL-6 DuoSet ELISA, Human IL-8/CXCL8 DuoSet ELISA). The raw assay data were analyzed using GraphPad Prism 9 software to perform a non-linear regression.
# H69 = assay: Flow cytometry binding to endogenous cell line H69; set-up: key: (−): No binding; (+): Weak binding; (++): Moderate binding; (+++): Strong binding; conditions: primary antibody 1 ug/ml
# Experimental: Staining for flow cytometry was performed in 1× cold PBS with 0.5% BSA. Primary antibodies (1 ug/ml) were incubated with live cells on ice for 30 minutes, after a brief wash, cells were incubated with Alexa Fluro® 488-conjugated anti-human IgG secondary antibody @1:1000 (709-546-149, Jackson ImmunoResearch). Acquisition of the data was performed on a MACSQuant® Flow Cytometers (Miltenyi Biotec) and analyzed with FlowJo software.
# IL-33 signaling = IL-33 signaling reporter cell assay (HEK-Blue IL-33 cells); conditions: antibody 1-10 μg/ml, IL-33 0.5 ng/ml
# Experimental: FIGS. 7A and 7B show blockage of IL-33 signaling by anti-IL1RAP antibodies. HEK-Blue IL-33 cells (Invivogen, CA) were harvested and plated in technical duplicates at a density of 50,000 cells per well in a 96-well plate. Antibodies, or a corresponding human IgG1 control antibody, was added to the wells in a serial dilution starting at 10 μg/ml (FIG. 7A), or a concentration of 1 and 10 μg/ml (FIG. 7B). After incubating cells with antibodies for 30 minutes, IL-33 was added to a final concentration of 0.5 ng/ml, and the plate was incubated overnight. 24 hours later, substrate was added to the supernatants, and samples were analyzed for absorbance at 620 nm. CBIgG1 (anti-hen egg lysozyme antibody, CrownBio™) was included as a negative control.
# HEK-Blue IL-33 cells (Invivogen, CA) were harvested and plated in technical duplicates at a density of 50,000 cells per well in a 96-well plate. antibodies, or a corresponding human IgG1 control antibody was added to the wells in a concentration range of […]. After incubating cells with antibodies for 30 minutes, IL-33 was added to a final concentration of 0.5 ng/ml, and the plate was incubated overnight. To examine whether any of the antibodies were able to induce ST2 activation in the absence of IL-33, samples were incubated with 10 μg/mL antibody without addition of the ligand. The following day, substrate was added to the supernatants, and samples were analyzed for absorbance at 620 nm.
molecule,measurement,setting,value
B1,"inhibition of HDM induced TARC level, FIG. 13",[1],inhibits
same,inhibition of IL-6 secretion,[2],inhibit IL-6 secretion
same,IL-6 production,[3],dose-dependent decrease
same,IL-8 production,[3],dose-dependent decrease
same,binding to H69 by flow cytometry,H69,(−)
same,inhibition of IL-33 signaling,IL-33 signaling,partially inhibit
